T1: HPV16 E7 peptide on HLA-A*02:01 (human)
T1 peptide: YMLDLQPET

B1: CRTE7A2 TCR (variable regions fused to murine constant regions) (TCR, V domains shown)
V domain 1: RKEVEQDPGPFNVPEGATVAFNCTYSNSASQSFFWYRQDCRKEPKLLMSVYSSGNEDGRFTAQLNRASQYISLLIRDSKLSDSATYLCAVISAGTALIFGKGTTLSVSS
V domain 2: DAGVTQSPTHLIKTRGQQVTLRCSPKSGHDTVSWYQQALGQGPQFIFQYYEEEERQRGNFPDRFSGHQFPNYSSELNVNALLLGDSALYLCASSLGWRGGLYTEAFFGQGTRLTVVE
B2: CRTE7A2 (TCR, V domains shown)
Valpha: B1 V domain 1
Vbeta: DAGVTQSPTHLIKTRGQQVTLRCSPKSGHDTVSWYQQALGQGPQFIFQYYEEEERQRGNFPDRFSGHQFPNYSSELNVNALLLGDSALYLCASSLGWRGGLYTEAFFGQGTRLTVV

Experiments:
[1] = molecular target: HPV16 E7 11-19 epitope (…) presented by HLA-A*02:01 (HPV16; human); test: cell-based or functional assay
[2] = molecular target: T1, HPV16 E7 peptide on HLA-A*02:01; test: multimer staining

| Binder | activation level of the NFAT-GFP reporter gene in Jurkat cells co-incubated with peptide-loaded T2 cells (EC50) [1] [µM] | binding result [2] |
| --- | --- | --- |
| B1 | 0.031 | – |
| B2 | – | recognises |
